Test results from patent US20240010684A1 (Bayer, published 2024).
Like-named read-outs stand apart in the source and are kept apart here. Bridges are numbered along the chain shown (N, C = ends). Where no end group is shown, it is not given here. [ ]: non-standard residue; d: D form. Oic = O=C(O)[C@@H]1C[C@@H]2CCCC[C@@H]2N1; tBuAla = CC(C)(C)C[C@H](N)C(=O)O; Pen = CC(C)(S)[C@H](N)C(=O)O; Dap = NC[C@H](N)C(=O)O; Ahx = NCCCCCC(=O)O; Sar = CNCC(=O)O

T1: recombinant human MASP1 (amino acids 297-699, C-terminal His Tag) (human, UniProt P48740 297-699)
T1 sequence: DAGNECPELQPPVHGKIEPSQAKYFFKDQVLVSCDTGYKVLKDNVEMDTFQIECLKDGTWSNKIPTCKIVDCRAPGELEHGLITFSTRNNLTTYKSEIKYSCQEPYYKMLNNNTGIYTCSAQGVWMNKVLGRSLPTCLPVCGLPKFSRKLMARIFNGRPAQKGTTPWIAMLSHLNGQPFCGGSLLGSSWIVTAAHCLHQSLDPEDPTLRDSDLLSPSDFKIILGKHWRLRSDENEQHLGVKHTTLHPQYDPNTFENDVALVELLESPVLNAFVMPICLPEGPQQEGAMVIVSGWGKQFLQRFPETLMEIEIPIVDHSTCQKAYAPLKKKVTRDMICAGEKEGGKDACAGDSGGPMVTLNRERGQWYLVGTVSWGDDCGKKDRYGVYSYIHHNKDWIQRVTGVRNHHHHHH

T2: recombinant rat MASP1 (amino acids 302-704, C-terminal His Tag) (rat, UniProt Q8CHN8 302-704)
T2 sequence: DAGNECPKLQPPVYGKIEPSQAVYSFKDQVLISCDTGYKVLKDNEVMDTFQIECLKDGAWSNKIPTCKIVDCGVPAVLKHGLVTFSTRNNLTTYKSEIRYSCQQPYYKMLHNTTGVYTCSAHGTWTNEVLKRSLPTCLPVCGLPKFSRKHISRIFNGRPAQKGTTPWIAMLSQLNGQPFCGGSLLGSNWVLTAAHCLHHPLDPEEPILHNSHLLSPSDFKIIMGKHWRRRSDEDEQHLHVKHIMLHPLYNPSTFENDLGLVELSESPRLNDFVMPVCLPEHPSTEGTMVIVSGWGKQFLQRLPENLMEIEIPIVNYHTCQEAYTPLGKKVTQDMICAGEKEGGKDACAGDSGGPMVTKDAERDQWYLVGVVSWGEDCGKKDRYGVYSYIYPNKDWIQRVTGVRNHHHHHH


Legend:
Assay in all cases: cell-based or functional assay
[1] = target: T1, recombinant human MASP1 (amino acids …)
[2] = target: T2, recombinant rat MASP1 (amino acids …)
[3] = target: T3, recombinant rat MASP2 (amino acids 296-685, C-terminal His Tag) (rat, UniProt Q9JJS8 296-685)
[4] = target: T1, recombinant human MASP1 (amino acids …); remark: listed apart in the source
[5] = target: T4, recombinant human MASP2 (amino acids 297-686, C-terminal His Tag) (human, UniProt O00187 297-686)
[6] = target: T2, recombinant rat MASP1 (amino acids …); remark: listed apart in the source
[7] = target: T3, recombinant rat MASP2 (amino acids …); remark: listed apart in the source
[8] = target: T4, recombinant human MASP2 (amino acids …); remark: listed apart in the source

T4 sequence (O00187 other isoform, or with tags, fused parts or gaps limits assumed): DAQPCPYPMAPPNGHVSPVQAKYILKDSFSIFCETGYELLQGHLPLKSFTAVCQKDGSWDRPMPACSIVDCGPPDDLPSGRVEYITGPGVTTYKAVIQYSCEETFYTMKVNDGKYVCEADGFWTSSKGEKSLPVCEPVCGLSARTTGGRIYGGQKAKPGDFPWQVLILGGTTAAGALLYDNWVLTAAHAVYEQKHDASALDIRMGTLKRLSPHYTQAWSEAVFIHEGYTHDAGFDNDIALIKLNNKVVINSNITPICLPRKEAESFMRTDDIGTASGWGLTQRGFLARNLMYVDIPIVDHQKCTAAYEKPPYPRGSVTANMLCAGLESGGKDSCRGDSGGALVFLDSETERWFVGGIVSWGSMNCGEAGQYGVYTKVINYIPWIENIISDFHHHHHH
T3 sequence (Q9JJS8 other isoform, or with tags, fused parts or gaps limits assumed): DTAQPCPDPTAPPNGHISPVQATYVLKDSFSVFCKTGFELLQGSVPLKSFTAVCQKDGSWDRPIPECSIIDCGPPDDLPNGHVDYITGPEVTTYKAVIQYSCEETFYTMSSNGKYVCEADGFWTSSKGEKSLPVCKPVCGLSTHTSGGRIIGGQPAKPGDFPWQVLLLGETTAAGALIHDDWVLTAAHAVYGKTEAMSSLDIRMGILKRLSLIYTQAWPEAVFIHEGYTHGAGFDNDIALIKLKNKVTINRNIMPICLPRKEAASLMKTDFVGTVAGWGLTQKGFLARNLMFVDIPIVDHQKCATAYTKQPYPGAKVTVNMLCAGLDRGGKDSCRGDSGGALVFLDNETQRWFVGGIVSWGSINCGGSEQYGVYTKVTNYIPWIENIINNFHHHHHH

Row | Binder | human MASP1 IC50 [1] [nM] | rat MASP1 IC50 [2] [nM] | rat MASP2 IC50 [3] [nM] | human MASP1 IC50 [4] [nM] | human MASP2 IC50 [5] [nM] | rat MASP1 IC50 [6] [nM] | rat MASP2 IC50 [7] [nM] | human MASP2 IC50 [8] [nM]
1 | cyclo(GYCSRSYPPVCIPD) (disulfide 3-11; SMILES CC[C@H](C)[C@@H]1NC(=O)[C@@H]2CSSC[C@H](NC(=O)[C@H](Cc3ccc(O)cc3)NC(=O)CNC(=O)[C@H](CC(=O)O)NC(=O)[C@@H]3CCCN3C1=O)C(=O)N[C@@H](CO)C(=O)N[C@@H](CCCNC(=N)N)C(=O)N[C@@H](CO)C(=O)N[C@@H](Cc1ccc(O)cc1)C(=O)N1CCC[C@H]1C(=O)N1CCC[C@H]1C(=O)N[C@@H](C(C)C)C(=O)N2) [Bicyclic SFMI-2: G**YC+SRSYPPVC+IPD**] | 8130 | 1000 | 126 | – | – | – | – | –
2 | cyclo([Ahx]ICSRS[tBuAla]PPI[Pen]I) (disulfide 3-11; also: TFA salt) [Example 52: (Ahx)**-IC+SRS-((tBu)A)-PPI-(Pen)+-I**] | – | – | – | 7.9 | 9.3 | 79 | 11.6 | –
3 | cyclo([Ahx]GICSRS[tBuAla]PPI[Pen]IPD) (disulfide 4-12; also: TFA salt) [Example 28: (Ahx)**-GIC+SRS-((tBu)A)-PPI-(Pen)+-IPD**] | – | – | – | 19 | 29 | 79 | 16 | –
4 | cyclo(AGGICSRS[tBuAla]PPI[Pen]IP[dD]) (disulfide 5-13; also: TFA salt) [Example 39: A**GGIC+SRS-((tBu)A)-PPI-(Pen)+-IPd**] | – | – | – | 6 | 75 | 44 | 8 | –
5 | cyclo(GICSRSLPPICIPD) (disulfide 3-11; SMILES CC[C@H](C)[C@@H]1NC(=O)CNC(=O)[C@H](CC(=O)O)NC(=O)[C@@H]2CCCN2C(=O)[C@H]([C@@H](C)CC)NC(=O)[C@@H]2CSSC[C@H](NC1=O)C(=O)N[C@@H](CO)C(=O)N[C@@H](CCCNC(=N)N)C(=O)N[C@@H](CO)C(=O)N[C@@H](CC(C)C)C(=O)N1CCC[C@H]1C(=O)N1CCC[C@H]1C(=O)N[C@@H]([C@@H](C)CC)C(=O)N2) [Bicyclic SFMI-1: G**IC+SRSLPPIC+IPD**] | 145 | 1000 | 232 | – | – | – | – | 895

Continued, values first:

Row | human MASP1 IC50 [1] [nM] | rat MASP1 IC50 [2] [nM] | rat MASP2 IC50 [3] [nM] | human MASP1 IC50 [4] [nM] | human MASP2 IC50 [5] [nM] | rat MASP1 IC50 [6] [nM] | rat MASP2 IC50 [7] [nM] | human MASP2 IC50 [8] [nM] | Binder
6 | – | – | – | 35 | 45 | 410 | 68 | – | EGICSRSLP[Oic]I[Pen]IPD[Dap]-NH2 (lactam 1-16; disulfide 4-12; also: TFA salt) [Example 93: E++GIC+SRSLP-(Oic)-I-(Pen)+-IPD-(Dap)++-NH2]
7 | 4800 | 1000 | 1000 | – | – | – | – | 5000 | cyclo(PFCIPPISKTCRGD) (disulfide 3-11; SMILES CC[C@H](C)[C@@H]1NC(=O)[C@@H]2CCCN2C(=O)[C@@H]2CCCN2C(=O)[C@H]([C@@H](C)CC)NC(=O)[C@@H]2CSSC[C@H](NC(=O)[C@H]([C@@H](C)O)NC(=O)[C@H](CCCCN)NC(=O)[C@H](CO)NC1=O)C(=O)N[C@@H](CCCNC(=N)N)C(=O)NCC(=O)N[C@@H](CC(=O)O)C(=O)N1CCC[C@H]1C(=O)N[C@@H](Cc1ccccc1)C(=O)N2) [Reference peptide 12: P**FC+IPPISKTC+RGD**]
8 | – | – | – | 8.5 | 33 | 180 | 18 | – | cyclo([Ahx][Sar]ICSRS[tBuAla]PPI[Pen]IP) (disulfide 4-12; also: TFA salt) [Example 54: (Ahx)**-((N-Me)G)-IC+SRS-((tBu)A)-PPI-(Pen)+-IP**]
9 | – | – | – | 9 | 650 | 110 | 46 | – | cyclo(ICSRS[tBuAla]PPI[Pen]IPP) (disulfide 2-10; also: TFA salt) [Example 58: I**C+SRS-((tBu)A)-PPI-(Pen)+-IPP**]
10 | – | – | – | 8.4 | 77 | 170 | 41 | – | cyclo(AGGICSRSLP[Oic]I[Pen]IPD) (disulfide 5-13; also: TFA salt) [Example 92: A**GGIC+SRSLP-(Oic)-I-(Pen)+-IPD**]
11 | – | – | – | 6.75 | 83.5 | 96 | 19 | – | cyclo([Ahx]AICSRS[tBuAla]PPI[Pen]IP) (disulfide 4-12; also: TFA salt) [Example 53: (Ahx)**-AIC+SRS-((tBu)A)-PPI-(Pen)+-IP**]
